Laboratory results as given in patent US10689452 (UNIVERSIT T STUTTGART, dated 2020).
Substitutions are numbered along the chain they refer to.

T1: human TNFR1-Fc fusion protein (human, UniProt P19438 29-211)
T1 construct: range 29-211; Made in stably transfected HEK293 cells; coated on ELISA plates or immobilised on QCM chips; also called huTNFR1-Fc; human TNFR-Fc; not shown: Fc part from vector pSecTagL1-Fc
T1 sequence (looked up): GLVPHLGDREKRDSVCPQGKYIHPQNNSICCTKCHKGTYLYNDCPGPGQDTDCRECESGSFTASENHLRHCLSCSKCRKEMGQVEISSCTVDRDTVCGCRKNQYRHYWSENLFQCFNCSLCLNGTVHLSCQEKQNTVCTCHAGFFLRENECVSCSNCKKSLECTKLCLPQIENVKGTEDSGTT

T2: human TNFR1 on cells (HT1080, HeLa, Kym-1) (human, UniProt P19438 30-455)
T2 sequence (looked up): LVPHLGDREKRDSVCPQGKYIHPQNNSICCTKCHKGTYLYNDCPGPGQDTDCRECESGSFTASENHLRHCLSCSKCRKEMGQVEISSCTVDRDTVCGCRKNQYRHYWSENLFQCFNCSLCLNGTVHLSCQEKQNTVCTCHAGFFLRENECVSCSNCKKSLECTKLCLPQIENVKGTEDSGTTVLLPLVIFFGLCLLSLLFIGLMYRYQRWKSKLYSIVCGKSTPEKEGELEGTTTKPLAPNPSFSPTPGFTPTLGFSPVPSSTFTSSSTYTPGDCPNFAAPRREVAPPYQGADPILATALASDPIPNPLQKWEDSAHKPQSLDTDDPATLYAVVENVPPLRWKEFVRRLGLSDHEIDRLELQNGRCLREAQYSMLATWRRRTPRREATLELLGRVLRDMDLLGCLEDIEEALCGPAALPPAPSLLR

B1: scFvIG11 (scFv, V domains shown)
VH: QVQLVQSGAEVKKPGSSVKVSCKASGYTFTDFYINWVRQAPGQGLEWIGEIVPTQGEAKYNDKFKARVTITADKSTSTAYMELSSLRSEDTAVYYCARWDFLDYWGQGTTVTVSS
VL: DIVMTQSPLSLPVTPGEPASISCRSSQSLLHSNGNTYLHWYLQKPGQSPQLLIYTVSNRFSGVPDRFSGSGSGTDFTLKISRVEAEDVGVYYCSQSTHVPYTFGGGTKVEIK
B2: H398 (antibody, V domains shown)
VH: QVQLQESGAELARPGASVKLSCKASGYTFTDFYINWVKQRTGQGLEWIGEIYPYSGHAYYNEKFKAKATLTADKSSSTAFMQLNSLTSEDSAVYFCVRWDFLDYWGQGTTLTVSS
VL: B1 VL with T14S, P15L, E17D, P18Q, L42V, Q50K, V88L, Y92F, V109L
B3: scFvT12B (scFv, V domains shown)
VH: B1 VH with Q1H, T54S
VL: B1 VL with S96G
B4: scFvIZI06.1 (scFv, V domains shown)
VH: B1 VH with V52Y, T54Y, Q55S, E57H, K59Y, D62E
VL: B1 VL
notes: Made in the periplasm of E. coli TG1; also called ATROSAB scFv

Key:
[1] = biological target: T1, human TNFR1-Fc fusion protein; test: QCM, human TNFR1-Fc immobilised
Protocol: (§1) Real-time binding dynamics in protein-protein interactions were determined by quartz crystal microbalance measurements (A-100 C-Fast or Cell-200 C-Fast, Attana, Stockholm, Sweden). One of the binding partners (ligand, e.g. TNFR1-Fc) was chemically immobilized on a carboxyl sensor chip according to the manufacturer's protocol at different densities (nearly 200 Hz in the case of saturating conditions to confirm previously published results and 50-100 Hz, in particular at about 50 Hz, to establish conditions of lower receptor density, better resembling the situation on the cellular surface). Binding experiments were performed with samples (analyte) diluted in PBST (PBS, 0.1% Tween 20) at pH 7.4 with a flow rate of 25 µl/min at 37° C. The chip was regenerated with 25 µl 5 mM NaOH or 20 mM glycine, pH 2.0. Every third measurement, an injection of running buffer was measured which was subtracted from the binding curve. Data were collected using the software provided by Attana for the particular device and analyzed by Attaché Office Evaluation software (Attana, Stockholm, Sweden) and TraceDrawe (ridgview instruments, Vange, Sweden).

[2] = biological target: T1, human TNFR1-Fc fusion protein; test: QCM, soluble scFv, moderate receptor density
Protocol: as §1

[3] = biological target: T1, human TNFR1-Fc fusion protein; test: QCM
[4] = biological target: T1, human TNFR1-Fc fusion protein; test: ELISA, human TNFR1-Fc
[5] = biological target: T2, human TNFR1 on cells (HT1080, HeLa, …); test: cell-based or functional assay
[6] = biological target: T2, human TNFR1 on cells (HT1080, HeLa, …); test: cell-based or functional assay; remark: listed apart in the source
[7] = biological target: T1, human TNFR1-Fc fusion protein; test: standard ELISA, human TNFR1-Fc
Protocol: (§2) FIG. 1. […] Applied were triplicates of five concentrations between 3.9 nM and 62.5 nM.
Microtiter plates were coated with 100 µl of the indicated protein (1 µg/ml in PBS, see Table 3.3) and incubated at 4° C. over night. The residual binding sites were blocked with 2% MPBS (skim milk in PBS, 200 µl per well) at room temperature for 2 hours and subsequently washed twice with PBS. 100 µl of the samples diluted in 2% MPBS were incubated at room temperature for 1 hour prior to the last incubation step with 100 µl of the HRP conjugated detection antibodies in 2% MPBS. In the case of competition experiments, both analyzed protein samples were prepared individually (either titrated or diluted to a single concentration) and mixed before they were applied to the plate. Bound protein was detected with 100 µl TMB substrate solution, the HRP-reaction was stopped by the addition of 50 µl 1 M H2SO4 and the absorption at the wavelength of 450 nm was measured using the Infinite microtiter plate reader (TECAN, Maennedorf, Switzerland). Between each incubation step and in advance of the detection, the plates were washed three times with PBST and twice with PBS.

[8] = biological target: T1, human TNFR1-Fc fusion protein; test: QCM, human TNFR1-Fc immobilised, high receptor density (195 Hz)
Protocol: as §2, §1

[9] = biological target: T1, human TNFR1-Fc fusion protein; test: QCM, human TNFR1-Fc immobilised, low receptor density (48 Hz)
Protocol: as §1

[10] = biological target: T1, human TNFR1-Fc fusion protein; test: phage ELISA on human TNFR1
[11] = biological target: T1, human TNFR1-Fc fusion protein; test: ELISA, human TNFR1-Fc; remark: listed apart in the source
[12] = biological target: T2, human TNFR1 on cells (HT1080, HeLa, …); test: cell-based or functional assay; remark: listed apart in the source

Binder	Kd [1] [nM]	koff [1] [s⁻¹]	kon [1] [M⁻¹ s⁻¹]	relative koff (compared with scFvIZI06.1) [2]	koff [3] [s⁻¹]	EC50 [4] [nM]	IC50 (nM), approximated; inhibition of TNF (0.1 nM) induced IL-8 release [5] [nM]	relative EC50 (compared with scFvIZI06.1) [10]	EC50 [11] [nM]	IC50 (nM), inhibition of TNF-induced IL-8 release from HT1080 cells [12] [nM]	further results
B1	24.9	0.0036	150000	0.31 relative to scFvIZI06.1	0.00026	2.6	~300	–	–	–	fold KD compared with scFvIZI06.1 [3]: 2 fold; fold reduced koff compared with scFvIZI06.1 [3]: ~3 fold
B2	–	–	–	–	–	–	–	–	–	–	IC50, LT [nM] (inhibition of IL-8 release from HT1080 cells induced by LTα) [6]: 0.65 nM; IC50, TNF [nM] (inhibition of IL-8 release from HT1080 cells induced by 0.1 nM TNF) [6]: 4.1 nM; EC50 [7]: 0.15 nM; Kd [8]: 0.23 nM; Kd [9]: 1.6 nM; koff [9]: 0.00062 s⁻¹
B3	–	–	–	0.25 relative to scFvIZI06.1	–	2	~45	0.017 relative to scFvIZI06.1	1.14	309	Improved (factor of KD regarding scFvIG11) [1]: 4.1 fold; Improved (factor of koff regarding scFvIG11) [1]: 2 fold; Improved (factor of kon regarding scFvIG11) [1]: 2.1 fold; Improved (factor of EC50 regarding scFvIG11) [4]: 1.3 fold; Improved (factor of IC50 regarding scFvIG11) [5]: ~6.7 fold
B4	28.9	0.014	500000	1 relative to scFvIZI06.1	0.00076	3.8	~200	1 relative to scFvIZI06.1	3.07	932	–
